These results are taken from patent publication US20170128527A1.

This experiment has as its target Human Prolactin Receptor (PrlR) (human) (UniProt P16471). The experiment can be described thus: cell-based or functional assay.
UniProt P16471, sequence (P16471 25-622 limits assumed): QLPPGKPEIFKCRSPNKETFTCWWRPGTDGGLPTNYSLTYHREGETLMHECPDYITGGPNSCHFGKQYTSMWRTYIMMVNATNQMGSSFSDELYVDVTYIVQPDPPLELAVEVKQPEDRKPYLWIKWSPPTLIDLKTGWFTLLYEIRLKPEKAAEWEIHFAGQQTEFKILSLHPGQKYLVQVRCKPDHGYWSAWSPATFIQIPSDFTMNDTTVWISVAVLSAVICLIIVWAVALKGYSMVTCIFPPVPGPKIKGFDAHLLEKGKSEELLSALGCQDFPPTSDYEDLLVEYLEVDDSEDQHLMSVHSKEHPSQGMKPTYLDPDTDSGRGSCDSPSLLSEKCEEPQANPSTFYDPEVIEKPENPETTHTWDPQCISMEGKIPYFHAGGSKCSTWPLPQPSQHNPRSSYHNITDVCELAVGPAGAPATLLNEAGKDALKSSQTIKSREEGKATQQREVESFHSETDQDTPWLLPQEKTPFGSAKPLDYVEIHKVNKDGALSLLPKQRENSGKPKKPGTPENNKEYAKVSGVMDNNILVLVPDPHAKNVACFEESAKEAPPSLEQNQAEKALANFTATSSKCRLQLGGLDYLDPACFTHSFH

Regarding “Prl receptor antagonist Prl Δ1-9 S33A, Q73L, G129R, K190R (SEQ ID NO: 13) (from UniProt P01236 38-227) (ligand)”, the Invasion (AU), U251 MG cells, CytoSelect Cell Invasion Assay, OD 560 nm; Prl 200 ng/ml + antagonist 200 ng/ml (control 0.380) stood at 0.379 AU and the Invasion (AU), U251 MG cells, CytoSelect Cell Invasion Assay, OD 560 nm; antagonist alone (control 0.380) stood at 0.385 AU.
